Measured values as given in the supplement of paper PMC7125110.
± gives the standard error. For part of these data: Variants at the floor of the assay were thinned out.

B1: glmS ribozyme (parent)
chain: AUAAAAGCGCCAGAACUACAGAAAUGUAGUUGACGAGGAGGAGGUUUAUCGAAUUUUCGGCGGAUGCCUCCAAA

Experiments:
Conditions in all cases: with glucosamine-6-phosphate
[1] = variants of: B1; assay: kcat; higher = faster cleavage; RNA array
Outline: (§1)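 Over ~14 h at 37 °C, tiles were imaged as glucosamine-6-phosphate (40 μM to 10 mM) in HEPES/KCl/Mg(OAc)2 buffer flowed across sequenced MiSeq chips. The chips carried barcoded ribozyme variants transcribed in situ by E. coli RNA polymerase and tracked with a hybridised Cy3 probe. After normalisation to baseline and to non-cleaving reference variants, one- or two-exponential decay fits of per-tile medians gave kobs. kcat and KM followed from weighted Michaelis–Menten fits across concentrations.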

[2] = variants of: B1; assay: self-cleavage kobs at 160 uM GlcN6P; higher = faster cleavage; RNA array
Outline: as §1

[3] = variants of: B1; assay: KM; higher = weaker cofactor use; RNA array
Outline: as §1

[4] = variants of: B1; assay: self-cleavage kobs at 640 uM GlcN6P; higher = faster cleavage; RNA array
Outline: as §1

[5] = variants of: B1; assay: self-cleavage kobs at 2500 uM GlcN6P; higher = faster cleavage; RNA array
Outline: as §1

[6] = variants of: B1; assay: self-cleavage kobs at 10000 uM GlcN6P; higher = faster cleavage; RNA array
Outline: as §1

[7] = variants of: B1; assay: self-cleavage kobs at 40 uM GlcN6P; higher = faster cleavage; RNA array
Outline: as §1

| Variant | kcat [1] [s⁻¹] | self-cleavage kobs at 160 uM GlcN6P [2] [s⁻¹] | KM [3] [µM] | self-cleavage kobs at 640 uM GlcN6P [4] [s⁻¹] | self-cleavage kobs at 2500 uM GlcN6P [5] [s⁻¹] | self-cleavage kobs at 10000 uM GlcN6P [6] [s⁻¹] | self-cleavage kobs at 40 uM GlcN6P [7] [s⁻¹] |
| --- | --- | --- | --- | --- | --- | --- | --- |
| C34G C67A | 1.49e-05 ± 6.7e-06 | < 1e-05 | – | – | – | – | – |
| A6U A53G | 0.000783 ± 0.00011 | – | 8850 ± 1500 | 5.15e-05 ± 9e-06 | 0.000178 ± 2.2e-05 | 0.000404 ± 8.1e-05 | – |
| G29A U31G | 0.000319 ± 2.2e-05 | 3.63e-05 ± 1e-05 | 1380 ± 180 | 9.51e-05 ± 1.6e-05 | 0.000217 ± 3.4e-05 | 0.000272 ± 5.4e-05 | – |
| C11U C70A | 5.41e-05 ± 1e-05 | – | – | 8.46e-05 ± 1.3e-05 | 5.81e-05 ± 9.9e-06 | 4.63e-05 ± 6.2e-06 | – |
| C16U G40C | 0.00242 ± 0.00035 | 0.000291 ± 3.7e-05 | 1020 ± 220 | 0.000837 ± 8.6e-05 | 0.00184 ± 0.00021 | 0.00227 ± 0.00027 | 0.00011 ± 1.1e-05 |
| C11U G37C U57A | 1.82e-05 ± 2.9e-06 | – | – | – | – | < 1e-05 | – |
| C50G U55G | 3.86e-05 ± 1.8e-05 | 7.28e-05 ± 1.9e-05 | – | – | 4.97e-05 ± 1.6e-05 | – | – |
| U30A U69A | 5.09e-05 ± 2.2e-05 | 5.73e-05 ± 2.4e-05 | – | – | 9.65e-05 ± 1.8e-05 | 3.22e-05 ± 1.1e-05 | – |
| A14G G37A U54A | 0.00578 ± 0.0027 | – | – | 0.000505 ± 0.00013 | 0.00178 ± 0.00043 | 0.00406 ± 0.00062 | 7.89e-05 ± 1.6e-05 |
| G62U C68U | 1.22e-05 ± 1.2e-06 | – | – | < 1e-05 | – | – | – |
| U45A G66U | 0.00194 ± 0.00019 | 0.000117 ± 3.4e-05 | 2090 ± 330 | 0.000508 ± 0.0001 | 0.00104 ± 0.00022 | 0.0016 ± 0.00026 | 4.15e-05 ± 1.3e-05 |
| C11A U31A | 0.00019 ± 2e-05 | – | 1480 ± 350 | 5.42e-05 ± 1e-05 | 0.000147 ± 2.8e-05 | 0.000158 ± 2.3e-05 | – |
| A14U U49G A53U U69G | 6.87e-05 ± 2.3e-05 | 8.99e-05 ± 3.4e-05 | – | – | 7.58e-05 ± 2.1e-05 | – | – |
| A52G U65A | 0.00041 ± 0.00018 | – | – | 6.01e-05 ± 1.2e-05 | 0.000103 ± 1.6e-05 | 0.00028 ± 4.3e-05 | – |
| C11U U31G | 0.00667 ± 0.0031 | 0.000255 ± 6.7e-05 | – | 0.000818 ± 0.00016 | 0.00175 ± 0.0004 | 0.00565 ± 0.00097 | 0.000105 ± 2.5e-05 |
| U31A G40C | 0.00121 ± 0.00017 | 0.000105 ± 3e-05 | 1410 ± 380 | 0.00048 ± 0.0001 | 0.00115 ± 0.00024 | 0.00101 ± 0.00011 | 3.09e-05 ± 7.3e-06 |
| A15G U65C | 0.000964 ± 0.00027 | 7.34e-05 ± 2.9e-05 | – | 0.00026 ± 5e-05 | 0.000852 ± 0.00013 | 0.000673 ± 0.00014 | – |
| A6U C70G | 3.01e-05 ± 9.6e-06 | – | – | 3.81e-05 ± 1.3e-05 | 5.38e-05 ± 1.1e-05 | 1.91e-05 ± 6.9e-06 | – |
| U31A C50A G51U A53G | < 1e-05 | < 1e-05 | – | – | – | – | – |
| G51A C68A | 2.97e-05 ± 4.5e-06 | – | – | – | – | – | – |

| Variant | kcat [1] [s⁻¹] | self-cleavage kobs at 160 uM GlcN6P [2] [s⁻¹] | KM [3] [µM] | self-cleavage kobs at 640 uM GlcN6P [4] [s⁻¹] | self-cleavage kobs at 2500 uM GlcN6P [5] [s⁻¹] | self-cleavage kobs at 10000 uM GlcN6P [6] [s⁻¹] | self-cleavage kobs at 40 uM GlcN6P [7] [s⁻¹] |
| --- | --- | --- | --- | --- | --- | --- | --- |
| U49A G59U | 1.28e-05 ± 4.5e-06 | – | – | – | – | – | – |
| A6U A64G | 0.000266 ± 4.3e-05 | – | 1910 ± 590 | 7.26e-05 ± 7.4e-06 | 0.000128 ± 1.6e-05 | 0.00025 ± 2.8e-05 | – |
| C61U C70U | 3.98e-05 ± 5.3e-06 | – | – | – | 3.31e-05 ± 1e-05 | 3.47e-05 ± 6e-06 | – |
| G29C U49G | 1.82e-05 ± 5.3e-06 | – | – | – | – | – | < 1e-05 |
| G29C C71A | 0.000154 ± 3.1e-05 | – | – | 0.000104 ± 1.9e-05 | 0.000119 ± 2.7e-05 | 0.000253 ± 7.8e-05 | – |
| G29A G59U | 1.01e-05 ± 3.5e-06 | – | – | < 1e-05 | – | – | – |
| A6C U30A | < 1e-05 | < 1e-05 | – | – | – | – | < 1e-05 |
| C11U U57A | 1.44e-05 ± 2.1e-06 | – | – | – | – | – | – |
| G9A A48G G51A G63A | 1.15e-05 ± 4.5e-06 | – | – | – | – | – | – |
| A42U U46G | 5.79e-05 ± 3.4e-06 | – | 901 ± 260 | 2.81e-05 ± 1.4e-05 | 3.86e-05 ± 1.2e-05 | 5.41e-05 ± 8.3e-06 | – |
| A42U U46A | 0.000165 ± 3.2e-05 | – | 4410 ± 1900 | – | 7.32e-05 ± 1.7e-05 | 0.000112 ± 1.7e-05 | – |
| A6G A14G | 0.00132 ± 0.00026 | 7.41e-05 ± 1.7e-05 | 3740 ± 1200 | 0.000162 ± 4.1e-05 | 0.000514 ± 7.9e-05 | 0.000992 ± 0.00016 | – |
| U31G G35U C67G | < 1e-05 | – | – | – | – | – | – |
| C11G A33U | < 1e-05 | < 1e-05 | – | – | < 1e-05 | – | – |
| G51A C71A | 1.9e-05 ± 9e-07 | – | 105 ± 32 | – | – | – | – |
| U46A C71U | 0.00396 ± 0.00074 | 0.000232 ± 6.3e-05 | 2020 ± 580 | 0.000874 ± 0.00015 | 0.00353 ± 0.00069 | 0.00319 ± 0.00037 | 8.79e-05 ± 1.3e-05 |
| G9A | 3.95e-05 ± 2.5e-06 | < 1e-05 | 5140 ± 880 | – | 1.33e-05 ± 3e-06 | 2.61e-05 ± 1.5e-06 | < 1e-05 |
| G62C U69G | 1.62e-05 ± 2.9e-06 | – | – | – | – | – | – |
| U31G G59A | 0.000131 ± 8.6e-06 | – | – | – | – | 4.18e-05 ± 1.3e-05 | < 1e-05 |
